According to IntAct's records for PubMed 10898792:

B1: DNA polymerase alpha catalytic subunit A (Saccharomyces cerevisiae), P13382 (parent)
chain: MSSKSEKLEKLRKLQAARNGTSIDDYEGDESDGDRIYDEIDEKEYRARKRQELLHDDFVVDDDGVGYVDRGVEEDWREVDNSSSDEDTGNLASKDSKRKKNIKREKDHQITDMLRTQHSKSTLLAHAKKSQKKSIPIDNFDDILGEFESGEVEKPNILLPSKLRENLNSSPTSEFKSSIKRVNGNDESSHDAGISKKVKIDPDSSTDKYLEIESSPLKLQSRKLRYANDVQDLLDDVENSPVVATKRQNVLQDTLLANPPSAQSLADEEDDEDSDEDIILKRRTMRSVTTTRRVNIDSRSNPSTSPFVTAPGTPIGIKGLTPSKSLQSNTDVATLAVNVKKEDVVDPETDTFQMFWLDYCEVNNTLILFGKVKLKDDNCVSAMVQINGLCRELFFLPREGKTPTDIHEEIIPLLMDKYGLDNIRAKPQKMKYSFELPDIPSESDYLKVLLPYQTPKSSRDTIPSDLSSDTFYHVFGGNSNIFESFVIQNRIMGPCWLDIKGADFNSIRNASHCAVEVSVDKPQNITPTTTKTMPNLRCLSLSIQTLMNPKENKQEIVSITLSAYRNISLDSPIPENIKPDDLCTLVRPPQSTSFPLGLAALAKQKLPGRVRLFNNEKAMLSCFCAMLKVEDPDVIIGHRLQNVYLDVLAHRMHDLNIPTFSSIGRRLRRTWPEKFGRGNSNMNHFFISDICSGRLICDIANEMGQSLTPKCQSWDLSEMYQVTCEKEHKPLDIDYQNPQYQNDVNSMTMALQENITNCMISAEVSYRIQLLTLTKQLTNLAGNAWAQTLGGTRAGRNEYILLHEFSRNGFIVPDKEGNRSRAQKQRQNEENADAPVNSKKAKYQGGLVFEPEKGLHKNYVLVMDFNSLYPSIIQEFNICFTTVDRNKEDIDELPSVPPSEVDQGVLPRLLANLVDRRREVKKVMKTETDPHKRVQCDIRQQALKLTANSMYGCLGYVNSRFYAKPLAMLVTNKGREILMNTRQLAESMNLLVVYGDTDSVMIDTGCDNYADAIKIGLGFKRLVNERYRLLEIDIDNVFKKLLLHAKKKYAALTVNLDKNGNGTTVLEVKGLDMKRREFCPLSRDVSIHVLNTILSDKDPEEALQEVYDYLEDIRIKVETNNIRIDKYKINMKLSKDPKAYPGGKNMPAVQVALRMRKAGRVVKAGSVITFVITKQDEIDNAADTPALSVAERAHALNEVMIKSNNLIPDPQYYLEKQIFAPVERLLERIDSFNVVRLSEALGLDSKKYFRREGGNNNGEDINNLQPLETTITDVERFKDTVTLELSCPSCDKRFPFGGIVSSNYYRVSYNGLQCKHCEQLFTPLQLTSQIEHSIRAHISLYYAGWLQCDDSTCGIVTRQVSVFGKRCLNDGCTGVMRYKYSDKQLYNQLLYFDSLFDCEKNKKQELKPIYLPDDLDYPKEQLTESSIKALTEQNRELMETGRSVVQKYLNDCGRRYVDMTSIFDFMLN
partner: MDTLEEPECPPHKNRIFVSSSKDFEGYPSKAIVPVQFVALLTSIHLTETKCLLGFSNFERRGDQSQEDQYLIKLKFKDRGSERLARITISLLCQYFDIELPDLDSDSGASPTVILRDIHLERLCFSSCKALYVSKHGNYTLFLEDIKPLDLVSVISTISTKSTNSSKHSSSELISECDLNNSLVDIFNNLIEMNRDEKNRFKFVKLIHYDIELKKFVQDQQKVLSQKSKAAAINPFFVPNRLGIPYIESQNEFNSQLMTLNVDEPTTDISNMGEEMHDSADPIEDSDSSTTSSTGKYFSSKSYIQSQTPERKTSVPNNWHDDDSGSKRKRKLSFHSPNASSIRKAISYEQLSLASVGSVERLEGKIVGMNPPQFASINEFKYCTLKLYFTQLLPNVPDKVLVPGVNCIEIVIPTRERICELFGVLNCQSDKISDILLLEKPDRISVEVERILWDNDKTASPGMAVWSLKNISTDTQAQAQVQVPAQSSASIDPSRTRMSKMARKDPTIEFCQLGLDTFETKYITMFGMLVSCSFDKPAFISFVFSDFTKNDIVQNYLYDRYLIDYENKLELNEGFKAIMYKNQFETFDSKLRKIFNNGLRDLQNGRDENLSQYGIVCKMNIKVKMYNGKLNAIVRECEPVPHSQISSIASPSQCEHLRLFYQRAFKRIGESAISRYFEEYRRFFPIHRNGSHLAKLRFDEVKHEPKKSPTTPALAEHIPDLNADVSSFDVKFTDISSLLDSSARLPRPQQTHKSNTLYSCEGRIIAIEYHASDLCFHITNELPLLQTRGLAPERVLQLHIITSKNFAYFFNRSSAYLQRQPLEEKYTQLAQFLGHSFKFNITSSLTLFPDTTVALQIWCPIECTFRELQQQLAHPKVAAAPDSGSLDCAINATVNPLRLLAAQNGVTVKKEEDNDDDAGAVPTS
B2: Cell division control protein 13 (Saccharomyces cerevisiae), P32797 (parent)
chain: B1 partner
partner: B1 chain
B3: Cell division control protein 13 (Saccharomyces cerevisiae), P32797 (parent)
chain: B1 partner
partner: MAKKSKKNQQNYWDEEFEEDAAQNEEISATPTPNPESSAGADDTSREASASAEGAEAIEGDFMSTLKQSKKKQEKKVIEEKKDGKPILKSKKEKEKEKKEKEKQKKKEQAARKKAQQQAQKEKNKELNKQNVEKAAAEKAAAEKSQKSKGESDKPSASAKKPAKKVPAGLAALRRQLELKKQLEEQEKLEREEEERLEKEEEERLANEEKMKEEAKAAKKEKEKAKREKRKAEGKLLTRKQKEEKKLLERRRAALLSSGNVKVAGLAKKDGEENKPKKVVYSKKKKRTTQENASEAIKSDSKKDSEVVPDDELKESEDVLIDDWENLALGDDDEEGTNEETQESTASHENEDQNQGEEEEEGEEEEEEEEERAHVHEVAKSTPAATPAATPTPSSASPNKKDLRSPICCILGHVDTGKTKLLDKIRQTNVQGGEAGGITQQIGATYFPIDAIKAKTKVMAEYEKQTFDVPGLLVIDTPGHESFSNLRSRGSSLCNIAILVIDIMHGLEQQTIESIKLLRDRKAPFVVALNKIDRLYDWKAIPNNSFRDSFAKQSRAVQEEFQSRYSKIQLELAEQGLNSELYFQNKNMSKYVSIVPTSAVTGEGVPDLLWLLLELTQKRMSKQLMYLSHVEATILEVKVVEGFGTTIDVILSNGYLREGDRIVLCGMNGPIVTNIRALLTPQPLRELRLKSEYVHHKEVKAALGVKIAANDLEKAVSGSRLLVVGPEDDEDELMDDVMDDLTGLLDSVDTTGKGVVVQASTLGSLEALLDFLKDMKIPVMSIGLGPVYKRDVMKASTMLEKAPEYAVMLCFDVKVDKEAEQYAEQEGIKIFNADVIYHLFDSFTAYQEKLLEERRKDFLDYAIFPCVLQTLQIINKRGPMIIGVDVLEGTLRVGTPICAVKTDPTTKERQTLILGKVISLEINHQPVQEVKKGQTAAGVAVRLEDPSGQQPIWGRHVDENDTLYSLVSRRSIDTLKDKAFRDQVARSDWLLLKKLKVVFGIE

Variants of: B1
Details: with cdc13_yeast CDC13, P32797

Effect of a mutation on the interaction, decreasing interaction:
D236N
P241T
E238K

Variants of: B2
Details: with dpola_yeast POL1, P13382

Effect of a mutation on the interaction, decreasing interaction:
G243R
Y382H
L392P
K50Q
I523V
S228P
L149S
K129R
I72T
D97F
C124R

Variants of: B3
Details: with if2p_yeast FUN12, P39730

Effect of a mutation on the interaction, decreasing interaction:
K129R
G243R
I72T
